Source: publication PMC12934148

Key:
[1] = system: Cas10-Csm R754E (Staphylococcus epidermidis); test: fluorescence polarization; settings: no Mg2+, 1 mM EDTA, Kd only in Fig 8B, 50 mM Tris-HCl pH 8.0, 400 mM NH4Cl, 5% v/v glycerol, 0.025% w/v BSA, 10 nM RNA, 2 h at room temperature
[2] = system: Cas10-Csm K524E (Staphylococcus epidermidis); test: fluorescence polarization; settings: no Mg2+, 1 mM EDTA, Kd only in Fig 8B, 50 mM Tris-HCl pH 8.0, 400 mM NH4Cl, 5% v/v glycerol, 0.025% w/v BSA, 10 nM RNA, 2 h at room temperature

Row | Sequence | binding signal (fold Kd vs same mutant on cognate) [1] | binding signal (fold Kd vs same mutant on cognate) [2] | binding signal (fold Kd vs wild type on cognate) [1] | binding signal (fold Kd vs wild type on cognate) [2]
1 | CUUUGUACUGAUGAUUUAUAUACAAGCCGAUACGUUCUCUAAA [pmRNA01-FMM2 (Nes target, segment 2 mismatch)] | 1.6 | 2.7 |  | 
2 | CUUUGUACUGAUGAUUUAUAUACUUCGGCAUACGUUCUCUAAA [pmRNA01-F (Nes cognate target)] |  |  | 2.8 | 1.8
